Measurements reported in the supplement of paper PMC10567573.

B1: ZNF207 (parent)
chain: FQPQPVQPQQGYIPPMAQPGLPPV
B2: PTPN9 (parent)
chain: ILFSLPPALDWDSVHVPGPHAMTI

Variants of: B1
Test: protein stability index of a GFP-peptide fusion (GPS, HEK-293T) (PSI 1-6); higher = more stable
Conditions: c terminus: a fixed tail appended
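Also: lentivirally expressed fusions sorted by FACS into six bins by GFP to DsRed ratio, PSI derived from sequencing read proportions per bin multiplied by bin number.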

Protein stability index of substitutions, site by site:
Q2: G 3.61 | C 2.18 | E 3.98 | K 3.54 | D 4.03 | I 1.9 | F 3.18
F1: G 4.37 | R 4 | N 4.33 | L 4.03 | H 4.06 | W 3.26 | V 3.91 | S 4.38 | K 4.37 | Y 3.61 | D 4.47 | M 3.9 | A 4.29 | E 4.36 | Q 4.18 | C 3.07 | I 3.9 | T 3.5

Variants of: B2
Test: as above
Conditions: c terminus: a fixed tail appended

Protein stability index: each site, then its substitutions
I24: M 2.69 | Y 1.73 | G 2.29 | A 1.55 | S 1.57 | W 3.21 | P 1.85 | C 2.43 | N 1.71 | R 1.71 | Q 2.71 | F 3.71 | K 2.06 | D 1.83 | E 1.69 | T 1.97 | H 1.63 | V 2.31 | L 1.99
P19: K 2.02 | Q 2.55 | D 2.1 | S 2.48 | R 2.65 | C 2.95 | V 3.51 | F 3.89 | M 2.77 | G 2.97 | H 2.46 | I 2.37 | E 2.35 | L 2.44 | Y 3.1 | N 2.89 | A 2.77 | W 2.19 | T 1.89
H20: E 1.59 | A 2.01 | C 2.58 | P 1.82 | M 2.88 | T 2.16 | D 2.29 | Y 3.11 | F 3.16 | Q 2.31 | N 2.59 | K 2.76 | L 2.79 | G 2.69 | I 2.93 | S 2.48 | R 2.12
P17: A 2.78 | D 2.21 | S 2.82 | L 2.79 | R 2.87 | I 2.67 | F 3.17 | M 3.11 | G 1.94 | N 2.71 | W 4.48 | E 2.47 | K 2.49 | C 1.49 | T 2.02 | Q 2.94 | H 1.42
G18: Q 3.62 | A 3.84 | M 2.48 | C 1.85 | E 2.12 | H 2.69 | R 2.19 | N 2.76 | V 2.36 | I 3.29 | L 4.77 | K 1.61 | D 1.85 | S 2.4 | W 3.41
A21: S 3.61 | P 2.84 | I 3.19 | L 2.86 | R 1.86 | H 2.88 | G 2.96 | N 1.75 | Y 3.24 | K 3.13 | Q 2.63 | V 4.21 | M 2.59 | E 2.64 | W 1.23 | D 2.71 | T 2.35 | C 3.09
M22: S 1.82 | R 1.86 | Q 2.04 | W 3.35 | V 2.64 | K 1.39 | I 2.93 | L 2.77 | P 1.77 | G 1.67 | F 1.73 | D 1.91 | T 1.75 | N 1.39 | A 2.35 | E 2.55 | H 1.24
T23: C 3.21 | S 2.4 | D 2.6 | Q 2.73 | I 2.96 | V 4.05 | R 3.03 | F 2.25 | M 4.43 | W 2.7 | N 3.27 | L 1.76 | K 2.87 | H 1.88 | A 1.49 | Y 2.69 | P 1.2 | G 3.89 | E 2.33
V16: W 2.95
